The target of series [1] is CDTb-pore, wild type (chymotrypsin-activated CDTb oligomer) (Clostridioides difficile) (UniProt O32739). The experiment in a line: SPR; CDTb-pore (WT, PSS, SPS) amine-coupled on SPRi-Biochip CS-HD, CDTa injected; room temperature, 50 uL/min; pH 5.5, 10 mM MES, 0.15 M NaCl, 1 mM EGTA, 0.005% Surfactant P20, 5 mM CaCl2; 1:1 model; average of two measurements. On the technique in general: SPR reads the build-up and loss of mass on a sensor chip optically.

The target is the same in series [2]. The experiment in a line: cryo-EM structure; CDTa without His-tag added to purified WT CDTb-pore at 3-fold molar excess, unbound CDTa not removed; 10 mM HEPES pH 7.5, 1 mM CaCl2, 0.003% LMNG; classes: di-heptamer, long pore, short pore.
Series [3] deals with CDTb-pore PSS-loop mutant (NSS > PSS) (Clostridioides difficile) (UniProt O32739). Briefly: SPR; CDTb-pore (WT, PSS, SPS) amine-coupled on SPRi-Biochip CS-HD, CDTa injected; room temperature, 50 uL/min; pH 5.5, 10 mM MES, 0.15 M NaCl, 1 mM EGTA, 0.005% Surfactant P20, 5 mM CaCl2; 1:1 model; average of two measurements.
Series [4] has as its target CDTb-pore SPS-loop mutant (NSS > SPS) (Clostridioides difficile) (UniProt O32739). The description is as above.
For series [5], the target named is CDTb-pore PSS-loop mutant (NSS > PSS) (Clostridioides difficile) (UniProt O32739). Briefly: SPR; CDTb-pore (WT, PSS, SPS) amine-coupled on SPRi-Biochip CS-HD, CDTa injected; room temperature, 50 uL/min; pH 5.5, 10 mM MES, 0.15 M NaCl, 1 mM EGTA, 0.005% Surfactant P20 (no calcium); 1:1 model; average of two measurements.
Series [6] deals with CDTb-pore SPS-loop mutant (NSS > SPS) (Clostridioides difficile) (UniProt O32739). The description is as above.
Series [7] addresses CDTb-pore, wild type (chymotrypsin-activated CDTb oligomer) (Clostridioides difficile) (UniProt O32739). The description is as above.
The target in series [8] is CDTb-pore PSS-loop mutant (NSS > PSS) (Clostridioides difficile) (UniProt O32739). Briefly: SPR; CDTb-pore (WT, PSS, SPS) amine-coupled on SPRi-Biochip CS-HD, CDTa injected; room temperature, 50 uL/min; pH 7.4, 10 mM HEPES, 0.15 M NaCl, 1 mM EGTA, 0.005% Surfactant P20, 5 mM CaCl2; 1:1 model; average of two measurements.
Series [9] addresses CDTb-pore SPS-loop mutant (NSS > SPS) (Clostridioides difficile) (UniProt O32739). The description is as above.
Series [10] addresses CDTb-pore, wild type (chymotrypsin-activated CDTb oligomer) (Clostridioides difficile) (UniProt O32739). The series is described as above.
Series [11] concerns the target CDTb-pore PSS-loop mutant (NSS > PSS) (Clostridioides difficile) (UniProt O32739). Briefly: SPR; CDTb-pore (WT, PSS, SPS) amine-coupled on SPRi-Biochip CS-HD, CDTa injected; room temperature, 50 uL/min; pH 7.4, 10 mM HEPES, 0.15 M NaCl, 1 mM EGTA, 0.005% Surfactant P20 (no calcium); 1:1 model; average of two measurements.
For series [12], the target named is CDTb-pore SPS-loop mutant (NSS > SPS) (Clostridioides difficile) (UniProt O32739). Described as above.
The target in series [13] is CDTb-pore, wild type (chymotrypsin-activated CDTb oligomer) (Clostridioides difficile) (UniProt O32739). Described as above.
Series [14] concerns the molecule itself. The experiment in a line: density gradient ultracentrifugation; CDTb after alpha-chymotrypsin, 0.03% LMNG 1 h 37 °C (LMNG after or before chymotrypsin); 10-30% glycerol, 50 mM HEPES pH 7.5, 100 mM NaCl, 1 mM CaCl2, 0.003% LMNG, 230,139 x g 16 h; A280 of fractions; protomers to heptamer and heptamer to di-heptamer.

A word on the kon: it is the rate constant with which the complex forms. As usually defined, the stoichiometry N is a count of units in the complex or per binding partner. Usually Kd stands for the concentration at which binding is half-saturated. The term koff denotes a measure of how fast the partners let go of each other.

Substitutions are numbered along the chain they refer to. Names and notes keep the numbering of the source. Values joined by “and” are separate entries in the source; they are usually repeats but may differ in a detail not shown here. Equal values may be shown once.

“CDTa (enzymatic A-component of the Clostridioides difficile binary toxin CDT) (CDTa injected)” had a kon in series [1] of 152000 M⁻¹ s⁻¹.

In series [2], “CDTa (enzymatic A-component of the Clostridioides difficile binary toxin CDT) (enzyme)” came in with a stoichiometry N of 1. Moreover, the equilibrium dissociation constant (Kd) in series [3] was found to be 2.29 nM; in series [4] it was 2.69 nM; in [1] it was 2.86 nM; in series [5], 2.27 nM; in series [6] it was 1.61 nM; in [7], 1.53 nM. Besides, the Kd in series [8] amounted to 4.93 nM; in series [9], 1.89 nM; in series [10], 3.27 nM; in [11], 55.1 nM; in [12], 26.2 nM; in series [13], 28.6 nM. For the same molecule, the koff in [3] was 0.000376 s⁻¹; in series [4], 0.000326 s⁻¹; in [1], 0.000436 s⁻¹; in [5], 0.00132 s⁻¹; in series [6], 0.000709 s⁻¹; in series [7], 0.000763 s⁻¹. Moreover, the koff in series [8] amounted to 0.00108 s⁻¹; in series [9] it was 0.000521 s⁻¹; in series [10], 0.000619 s⁻¹; in series [11] it was 0.00567 s⁻¹; in series [12] it was 0.00304 s⁻¹; in series [13], 0.00413 s⁻¹. Besides, the kon in series [3] stood at 164000 M⁻¹ s⁻¹; in series [4], 121000 M⁻¹ s⁻¹; in series [5], 584000 M⁻¹ s⁻¹; in [6], 441000 M⁻¹ s⁻¹; in series [7], 498000 M⁻¹ s⁻¹; in [8] it was 220000 M⁻¹ s⁻¹. The kon in [9] is 276000 M⁻¹ s⁻¹; in series [10] it was 189000 M⁻¹ s⁻¹; in series [11], 103000 M⁻¹ s⁻¹; in [12], 116000 M⁻¹ s⁻¹; in [13] it was 144000 M⁻¹ s⁻¹.

B1: CDTb-pore, wild type (chymotrypsin-activated CDTb oligomer) (complex)
chain: WEDEDLDTDNDNIPDSYERNGYTIKDLIAVKWEDSFAEQGYKKYVSNYLESNTAGDPYTDYEKASGSFDKAIKTEARDPLVAAYPIVGVGMEKLIISTNEHASTDQGKTVSRATTNSKTESNTAGVSVNVGYQNGFTANVTTNYSHTTDNSTAVQDSNGESWNTGLSINKGESAYINANVRYYNTGTAPMYKVTPTTNLVLDGDTLSTIKAQENQIGNNLSPGDTYPKKGLSPLALNTMDQFSSRLIPINYDQLKKLDAGKQIKLETTQVSGNFGTKNSSGQIVTEGNSWSDYISQIDSISASIILDTENESYERRVTAKNLQDPEDKTPELTIGEAIEKAFGATKKDGLLYFNDIPIDESCVELIFDDNTANKIKDSLKTLSDKKIYNVKLERGMNILIKTPTYFTNFDDYNNYPSTWSNVNTTNQDGLQGSANKLNGETKIKIPMSELKPYKRYVFSGYSKDPLTSNSIIVKIKAKEEKTDYLVPEQGYTKFSYEFETTEKDSSNIEITLIGSGTTYLDNLSITELNSTPEILDEPEVKIPTDQEIMDAHKIYFADLNFNPSTGNTYINGMYFAPTQTNKEALDYIQKYRVEATLQYSGFKDIGTKDKEMRNYLGDPNQPKTNYVNLRSYFTGGENIMTYKKLRIYAITPDDRELLVLSVD
notes: CDTb, Clostridioides difficile, UniProt O32739; cloned as amino acids 40-876 (without signal peptide); domains after cleavage are printed as 1' (W214-A296, domain 1 without the pro-peptide) to 4 (T617-D876); Heptameric pore; also found as a di-heptamer (14 chains); also called WT CDTb; NSS-loop
In the case of B1, in series [14], the “stoichiometry N” value is 14 and 7.

B2: CDTb F774G mutant (chymotrypsin-activated oligomer) (complex)
chain: B1 chain with F561G
notes: CDTb, Clostridioides difficile, UniProt O32739; cloned as amino acids 40-876; domains after cleavage printed as W214-D876; Prepared by the same protocol as wild type, without LMNG pretreatment; source: E. coli BL21 Star (DE3), purified as wild type (Glutathione Sepharose 4B), alpha-chymotrypsin, LMNG
As for B2, in [14], the “stoichiometry N” value was 14 and 7.

B3: CDTb F774L mutant (chymotrypsin-activated oligomer) (complex)
chain: B1 chain with F561L
notes: as for B2
Turning to B3, in series [14], the “stoichiometry N” value was 14 and 7.

These data come from PMC9576733, “Cryo-EM structures of the translocational binary toxin complex CDTa-bound CDTb-pore from Clostridioides difficile” (Nature Communications, 2022).
